The values below come from patent US20040235117A1.

Values joined by “and” are separate entries in the source; they are usually repeats but may differ in a detail not shown here. Equal entries are not always repeated. A value given as a limit tells only on which side of the number the result lay.

In assay [1] the target is Flag-CD40L (AA 116 to 261) (human) (UniProt P29965). In words: competitive ELISA, CD40:Fc coated on the plate, sCD40L at constant concentration. A general note: An ELISA detects its analyte on a solid surface through an enzyme-linked reagent.
For assay [2], the target named is fusion protein (3), super FasL (human) (UniProt P48023). The experiment in a line: cell-based or functional assay.
The target in assay [3] is fusion protein (5), TRAIL-ACRP30 (murine; human) (UniProt Q60994). The experiment in a line: cell-based or functional assay.
Assay [4] has as its target fusion protein (1), FasL trimer (flag sequence, linker, hFasL AA 139 to 281) (human) (UniProt P48023). The experiment in a line: BIAcore, 7 ul of 2.5 ug/ml Flag-FasL over immobilised M2 antibody. For orientation: In SPR one partner is held on a chip, and binding of the other changes the refractive index at the surface.
Assay [5] concerns the target TRAIL trimer (flag sequence, linker, hTRAIL AA 95 to 281) (human) (UniProt P50591). The experiment in a line: BIAcore, 7 ul of 2.5 ug/ml Flag-TRAIL over immobilised M2 antibody.
Assay [6] deals with fusion protein (1), FasL trimer (flag sequence, linker, hFasL AA 139 to 281) (human) (UniProt P48023). In words: cell-based or functional assay.
For assay [7], the target named is Flag-CD40L (AA 116 to 261) (human) (UniProt P29965). The experiment in a line: competitive ELISA, CD40:Fc coated on the plate, sCD40L at constant concentration, protein A 1 ug/ml.
Assay [8] deals with TNF receptor 2 (TNF-R2) on CT6 cells (mouse (on CT6 cells of mice)) (UniProt P25119). The experiment in a line: cell-based or functional assay.
The target in assay [9] is fusion protein (1), FasL trimer (flag sequence, linker, hFasL AA 139 to 281) (human) (UniProt P48023). In words: cell-based or functional assay. This is another data set of the same source.
The target is the same in assay [10]. In words: BIAcore, Flag-FasL captured on an M2-modified CM5 chip; reference Fas:Fc.
The target is the same in assay [11]. The experiment in a line: BIAcore, Flag-FasL captured on an M2-modified CM5 chip, receptor fusion protein injected.

Sequence of UniProt P29965 (P29965 other isoform, or with tags, fused parts or gaps limits assumed): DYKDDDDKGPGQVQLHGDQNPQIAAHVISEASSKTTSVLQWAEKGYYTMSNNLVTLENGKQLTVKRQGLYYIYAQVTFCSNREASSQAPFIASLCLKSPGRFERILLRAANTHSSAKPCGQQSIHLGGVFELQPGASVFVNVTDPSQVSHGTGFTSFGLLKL
Sequence of UniProt P50591 (P50591 other isoform, or with tags, fused parts or gaps limits assumed): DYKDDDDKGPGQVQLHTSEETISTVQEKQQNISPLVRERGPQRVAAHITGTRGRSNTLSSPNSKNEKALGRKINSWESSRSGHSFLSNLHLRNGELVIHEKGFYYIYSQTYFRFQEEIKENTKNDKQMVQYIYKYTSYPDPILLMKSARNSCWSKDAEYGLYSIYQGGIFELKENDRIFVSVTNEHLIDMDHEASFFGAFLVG
Sequence of UniProt Q60994 (Q60994 other isoform, or with tags, fused parts or gaps limits assumed): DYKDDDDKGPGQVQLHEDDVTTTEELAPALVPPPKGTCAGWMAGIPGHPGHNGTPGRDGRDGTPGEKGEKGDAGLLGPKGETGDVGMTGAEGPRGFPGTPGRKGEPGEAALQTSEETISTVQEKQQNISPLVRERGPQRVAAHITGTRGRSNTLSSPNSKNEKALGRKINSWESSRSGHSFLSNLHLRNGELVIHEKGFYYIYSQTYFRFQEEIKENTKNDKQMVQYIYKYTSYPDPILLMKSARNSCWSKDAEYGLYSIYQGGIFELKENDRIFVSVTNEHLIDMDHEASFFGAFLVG
Sequence of UniProt P25119 (P25119 23-474): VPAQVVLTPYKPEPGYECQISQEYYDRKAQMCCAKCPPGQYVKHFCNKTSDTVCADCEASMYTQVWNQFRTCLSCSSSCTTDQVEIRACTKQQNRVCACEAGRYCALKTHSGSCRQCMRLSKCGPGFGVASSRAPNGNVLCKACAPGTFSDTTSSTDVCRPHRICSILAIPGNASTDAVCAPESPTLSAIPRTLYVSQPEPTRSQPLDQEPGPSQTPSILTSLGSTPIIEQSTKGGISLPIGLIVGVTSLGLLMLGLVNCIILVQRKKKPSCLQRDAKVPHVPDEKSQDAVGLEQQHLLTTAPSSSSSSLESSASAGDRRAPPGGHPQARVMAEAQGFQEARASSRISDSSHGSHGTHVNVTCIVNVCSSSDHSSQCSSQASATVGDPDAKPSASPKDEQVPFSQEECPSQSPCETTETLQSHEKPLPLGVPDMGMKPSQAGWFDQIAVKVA

CD40:COMP (receptor): in [1], the fold increase in the affinity (against CD40:Fc) is 30 fold. Consider anti-flag M2 monoclonal antibody, for which the cytotoxic assay on A20 and Jurkat cells, fold increase of apoptotic activity in assay [2] was 2 fold and > 1.5 fold. Also, in [3], the cytotoxic assay on Jurkat cells, fold increase of apoptosis-inducing activity is > 10 fold. Further, the units bound (BIAcore response) in assay [4] and in assay [5] was 100 to 150 units each time. Turning to “Fas:CMP (from UniProt P25445 1-170) (receptor)”, the inhibition of sFasL-mediated lysis, fold less effective than Fas:COMP in assay [6] is 5 fold. Consider “CD40:Fc/PA (from UniProt P25942 21-193) (Fc fusion)”, for which the fold increase in the affinity (against CD40:Fc) in [7] turned out to be 8 fold.

In assay [8], “fusion protein (6), TNFα-ACRP30 (from UniProt Q60994 18-111; P06804 77-235) (ligand)” had a 3[H]-thymidin incorporation into CT6 cells (cell proliferation) of 5 ng/mL.

B1: Fas:COMP (receptor, not shown: small tags and cut ends)
chain: QVTDINSKGLELRKTVTTVETQNLEGLHHDGQFCHKPCPPGERKARDCTVNGDEPDCVPCQEGKEYTDKAHFSSKCRRCRLCDEGHGLEVEINCTRTQNTKCRCKPNFFCNSTVCEHCDPCTKCEHGIIKECTLTSNTKCKEEGSPQPQPKPQPKPEPEGGCCQMLRELQETNAALQDVRELLRHRVKEITFLKNTVMECDACGMQPARTPGGGS
modifications: Assembles as a disulphide-linked pentamer through the COMP coiled coil (about 400 kDa by gel filtration). N-glycosylated.
In turn, B1 came in with an inhibitory activity in cytotoxicity tests on cell lines, fold over Fas:Fc in [9] of 10 to 20 fold. The molecule also registered a fold lower dissociation constant than Fas:Fc in assay [10] of 8 to 9 fold. Also, the Kd in assay [11] was found to be 0.77 nM.

As a reminder, the Kd is a measure of binding affinity in units of concentration. Higher therefore signals a looser complex.
